Reference: publication PMC5130146 (Nature structural & molecular biology, 2016)
Where two headings read alike, the source gives them in different places.

Tests used:
Assay in all cases: ITC
[1] = target: AP2 µ2 C-terminal subdomain (C-µ2), residues 160-435 of rat µ2 (rat) (UniProt P84092)
[2] = target: T1, AP2 µ2 C-terminal subdomain (C-µ2), residues 160-435 of rat µ2 (rat, UniProt P84092 160-435)
T1 sequence: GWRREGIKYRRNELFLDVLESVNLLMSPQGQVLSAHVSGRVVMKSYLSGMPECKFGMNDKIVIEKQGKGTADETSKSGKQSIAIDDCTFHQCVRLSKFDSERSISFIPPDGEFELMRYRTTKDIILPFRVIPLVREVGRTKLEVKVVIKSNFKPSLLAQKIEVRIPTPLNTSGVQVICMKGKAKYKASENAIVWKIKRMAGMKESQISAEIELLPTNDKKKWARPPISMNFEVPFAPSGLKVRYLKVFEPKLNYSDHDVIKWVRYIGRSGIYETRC

[3] = target: T1, AP2 µ2 C-terminal subdomain (C-µ2), …; remark: listed apart in the source

**Q.** For EGFR peptide (FYRLMS), which Kd [1] is on record?
**A.** Its Kd is 20 µM.

**Q.** With integrin α4 peptide (QYKSILQE) as the molecule, how does the Kd [1] read?
**A.** Its Kd is 72 µM.

**Q.** For YKLGFFKRSLPYGTAMEKAQLKPPATSDA [α5-integrin peptide (YKLGFFKRSLPYGTAMEKAQLKPPATSDA)], which Kd [2] is on record?
**A.** The Kd was > 300 µM.

**Q.** With SYTRFS [transferrin receptor peptide (SYTRFS)] as the molecule, how does the Kd [3] read?
**A.** The Kd was ~15 µM.

**Q.** For WKLGFFKRKYEKMTKNPDEIDETTELSS [α2 integrin peptide (WKLGFFKRKYEKMTKNPDEIDETTELSS)], which Kd [2] is on record?
**A.** The Kd was ~50 µM.

**Q.** With DYQRLN [TGN38 peptide (DYQRLN)] as the molecule, how does the Kd [3] read?
**A.** Its Kd is ~4 µM.

**Q.** For KLLMIIHDRREFAKFEKEKMNAKWDTGENPIYKSAVTTVVNPKYEGK [β1-integrin peptide], which Kd [2] is on record?
**A.** Its Kd is > 300 µM.
